Patent publication US20200317812A1 (AGENCY FOR SCIENCE TECHNOLOGY AND RESEARCH, published 2020)

Molecular target: T1, AXL receptor tyrosine kinase (Homo sapiens, UniProt P30530 26-894, O-linked glycan (site not stated) reported as the TAG_TNB1 epitope)
T1 sequence (looked up): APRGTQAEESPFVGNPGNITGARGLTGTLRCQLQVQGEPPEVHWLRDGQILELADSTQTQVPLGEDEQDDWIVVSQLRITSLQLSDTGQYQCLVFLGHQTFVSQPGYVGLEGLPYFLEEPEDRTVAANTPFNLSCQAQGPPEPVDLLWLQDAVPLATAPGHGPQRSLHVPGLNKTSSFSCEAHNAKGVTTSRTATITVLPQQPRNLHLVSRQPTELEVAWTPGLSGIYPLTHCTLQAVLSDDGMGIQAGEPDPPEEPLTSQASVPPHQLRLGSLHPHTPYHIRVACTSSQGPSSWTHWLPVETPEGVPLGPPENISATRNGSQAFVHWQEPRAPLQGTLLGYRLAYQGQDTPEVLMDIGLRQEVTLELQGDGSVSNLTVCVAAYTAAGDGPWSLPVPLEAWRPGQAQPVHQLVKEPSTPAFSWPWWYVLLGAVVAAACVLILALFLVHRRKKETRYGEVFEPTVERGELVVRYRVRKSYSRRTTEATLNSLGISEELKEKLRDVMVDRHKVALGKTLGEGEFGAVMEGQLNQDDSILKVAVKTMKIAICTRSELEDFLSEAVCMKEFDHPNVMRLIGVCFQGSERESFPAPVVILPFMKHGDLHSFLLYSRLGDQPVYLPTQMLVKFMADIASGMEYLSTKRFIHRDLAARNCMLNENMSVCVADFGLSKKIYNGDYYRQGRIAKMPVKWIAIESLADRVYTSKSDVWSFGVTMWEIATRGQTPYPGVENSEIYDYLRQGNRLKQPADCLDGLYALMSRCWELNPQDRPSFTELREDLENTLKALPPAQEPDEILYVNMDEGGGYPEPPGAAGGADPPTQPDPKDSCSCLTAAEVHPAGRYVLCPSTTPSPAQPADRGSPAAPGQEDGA
Assay: cell-based or functional assay

B1: ch_TAG_TNB1-saporin (antibody, V domains shown)
VH: QVKLQESGAELVKPGASVKLSCKASGFTFTSYYMYWVKQRPGQGLEWIGGVSPSNGGANFNEKFKTKATLTVDKSSSTAYMQLSSLTSEDSAVYYCTRFLYGPRYFDVWGQGTTVTVSS
VL: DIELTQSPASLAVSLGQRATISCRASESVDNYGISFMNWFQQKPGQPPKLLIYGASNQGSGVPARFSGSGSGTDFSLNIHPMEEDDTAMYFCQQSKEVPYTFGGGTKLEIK
modifications: Saporin toxin directly conjugated to the antibody; site and chain not stated
IC50, Cell Titre Glo cell viability, BT549 cells: 1.24 nM
IC50, Cell Titre Glo cell viability, H1299 cells: 0.0353 nM
IC50, Cell Titre Glo cell viability, Hs578T cells: 0.529 nM
IC50, Cell Titre Glo cell viability, MDA-MB-231 cells: 0.34 nM
